Experimental data from patent US20060026702A1, “Phosphoinositide 3-kinase mediated inhibition of GPCRs” (DUKE UNIVERSITY, priority 2002, published 2006).

Target: endogenous βARK1 of HEK 293 cells (UniProt P25098)
Experiment: cell-based or functional assay

Sequence of endogenous βARK1 of HEK 293 cells (P25098 whole entry): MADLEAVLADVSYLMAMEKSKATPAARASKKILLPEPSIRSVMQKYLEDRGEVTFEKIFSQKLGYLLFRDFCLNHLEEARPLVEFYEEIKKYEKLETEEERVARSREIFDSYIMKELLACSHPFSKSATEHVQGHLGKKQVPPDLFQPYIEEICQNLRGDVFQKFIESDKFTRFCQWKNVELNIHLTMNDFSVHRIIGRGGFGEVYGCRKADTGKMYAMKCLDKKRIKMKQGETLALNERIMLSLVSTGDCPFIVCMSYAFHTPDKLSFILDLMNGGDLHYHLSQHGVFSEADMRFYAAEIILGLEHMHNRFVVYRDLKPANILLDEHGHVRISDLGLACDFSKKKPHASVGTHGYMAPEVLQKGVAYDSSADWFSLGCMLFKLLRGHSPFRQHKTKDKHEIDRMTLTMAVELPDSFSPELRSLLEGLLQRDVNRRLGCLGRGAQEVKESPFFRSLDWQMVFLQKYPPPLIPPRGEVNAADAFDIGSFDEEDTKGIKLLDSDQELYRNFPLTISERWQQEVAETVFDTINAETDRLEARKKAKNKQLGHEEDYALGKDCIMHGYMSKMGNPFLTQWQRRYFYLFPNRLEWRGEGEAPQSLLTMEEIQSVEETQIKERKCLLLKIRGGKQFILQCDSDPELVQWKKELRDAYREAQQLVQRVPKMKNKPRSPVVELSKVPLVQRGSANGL

endogenous PI3K of HEK 293 cells (enzyme)
rate of agonist-dependent β2AR sequestration (125I-Cyanopindolol binding) with HEAT protein overexpressed: > 60%
